Experimental data taken from paper PMC6476931, “The Complex Fibrinogen Interactions of the Staphylococcus aureus Coagulases” (Frontiers in Cellular and Infection Microbiology, 2019).

B1: GST-Coa-N (N-terminal half of Coa) (domain or fragment)
chain: IVTKDYSGKSQVNAGSKNGTLIDSRYLNSALYYLEDYIIYAIGLTNKYEYGDNIYKEAKDRLLEKVLREDQYLLERKKSQYEDYKQWYANYKKENPRTDLKMANFHKYNLEELSMKEYNELQDALKRALDDFHREVKDIKDKNSDLKTFNAAEEDKATKEVYDLVSEIDTLVVSYYGDKDYGEHAKELRAKLDLILGDTDNPHKITNERIKKEMIDDLNSIIDDFFMETKQNRPKSITKYNPTTHNYKTNSDNKPNFDKLVEETKKAVKEADDSWKKKTVKKYG
modifications: plasma-purified hexamer (AαBβγ)2, disulfide-linked, N-glycosylated, fibrinopeptides A and B retained. Predominant plasma forms assumed: 610-residue Aα and 411-residue γA (the P02679 canonical …)
B2: Human fibrinogen (complex)
chain 1: ADSGEGDFLAEGGGVRGPRVVERHQSACKDSDWPFCSDEDWNYKCPSGCRMKGLIDEVNQDFTNRINKLKNSLFEYQKNNKDSHSLTTNIMEILRGDFSSANNRDNTYNRVSEDLRSRIEVLKRKVIEKVQHIQLLQKNVRAQLVDMKRLEVDIDIKIRSCRGSCSRALAREVDLKDYEDQQKQLEQVIAKDLLPSRDRQHLPLIKMKPVPDLVPGNFKSQLQKVPPEWKALTDMPQMRMELERPGGNEITRGGSTSYGTGSETESPRNPSSAGSWNSGSSGPGSTGNRNPGSSGTGGTATWKPGSSGPGSTGSWNSGSSGTGSTGNQNPGSPRPGSTGTWNPGSSERGSAGHWTSESSVSGSTGQWHSESGSFRPDSPGSGNARPNNPDWGTFEEVSGNVSPGTRREYHTEKLVTSKGDKELRTGKEKVTSGSTTTTRRSCSKTVTKTVIGPDGHKEVTKEVVTSEDGSDCPEAMDLGTLSGIGTLDGFRHRHPDEAAFFDTASTGKTFPGFFSPMLGEFVSETESRGSESGIFTNTKESSSHHPGIAEFPSRGKSSSYSKQFTSSTSYNRGDSTFESKSYKMADEAGSEADHEGTHSTKRGHAKSRPV
chain 2: QGVNDNEEGFFSARGHRPLDKKREEAPSLRPAPPPISGGGYRARPAKAAATQKKVERKAPDAGGCLHADPDLGVLCPTGCQLQEALLQQERPIRNSVDELNNNVEAVSQTSSSSFQYMYLLKDLWQKRQKQVKDNENVVNEYSSELEKHQLYIDETVNSNIPTNLRVLRSILENLRSKIQKLESDVSAQMEYCRTPCTVSCNIPVVSGKECEEIIRKGGETSEMYLIQPDSSVKPYRVYCDMNTENGGWTVIQNRQDGSVDFGRKWDPYKQGFGNVATNTDGKNYCGLPGEYWLGNDKISQLTRMGPTELLIEMEDWKGDKVKAHYGGFTVQNEANKYQISVNKYRGTAGNALMDGASQLMGENRTMTIHNGMFFSTYDRDNDGWLTSDPRKQCSKEDGGGWWYNRCHAANPNGRYYWGGQYTWDMAKHGTDDGVVWMNWKGSWYSMRKMSMKIRPFFPQQ
chain 3: YVATRDNCCILDERFGSYCPTTCGIADFLSTYQTKVDKDLQSLEDILHQVENKTSEVKQLIKAIQLTYNPDESSKPNMIDAATLKSRKMLEEIMKYEASILTHDSSIRYLQEIYNSNNQKIVNLKEKVAQLEAQCQEPCKDTVQIHDITGKDCQDIANKGAKQSGLYFIKPLKANQQFLVYCEIDGSGNGWTVFQKRLDGSVDFKKNWIQYKEGFGHLSPTGTTEFWLGNEKIHLISTQSAIPYALRVELEDWNGRTSTADYAMFKVGPEADKYRLTYAYFAGGDAGDAFDGFDFGDDPSDKFFTSHNGMQFSTWDNDNDKFEGNCAEQDGSGWWMNKCHAGHLNGVYYQGGTYSKASTPNGYDNGIIWATWKTRWYSMKKTTMKIIPFNRLTIGEGQQHHLGGAKQAGDV
modifications: plasma-purified hexamer (AαBβγ)2, disulfide-linked, N-glycosylated, fibrinopeptides A and B retained. Predominant plasma forms assumed: 610-residue Aα and 411-residue γA (the P02679 canonical …)
B3: GST-Coa-C (C-terminal half of Coa) (domain or fragment)
chain: ETETKSPVVKEEKKVEEPQAPKVDNQQEVKTTAGKAEETTQPVAQPLVKIPQGTITGEIVKGPEYPTMENKTVQGEIVQGPDFLTMEQSGPSLSNNYTNPPLTNPILEGLEGSSSKLEIKPQGTESTLKGTQGESSDIEVKPQATETTEASQYGPRPQFNKTPKYVKYRDAGTGIREYNDGTFGYEARPRFNKPSETNAYNVTTHANGQVSYGARPTYKKPSETNAYNVTTHANGQVSYGARPTQNKPSKTNAYNVTTHGNGQVSYGARPTQNKPSKTNAYNVTTHANGQVSYGARPTYKKPSKTNAYNVTTHADGTATYGPRVTK
modifications: plasma-purified hexamer (AαBβγ)2, disulfide-linked, N-glycosylated, fibrinopeptides A and B retained. Predominant plasma forms assumed: 610-residue Aα and 411-residue γA (the P02679 canonical …)

Assays:
Details in all cases: both partners purified
Human fibrinogen = Human fibrinogen (human, UniProt P02671 36-866; P02675 45-491; P02679 27-453); experiment: ELISA; Fg coated on wells (5 μg/ml, 0.5 μg/well); GST-vWbp or GST-Coa proteins in 1% BSA, 0.05% Tween 20, TBS, 1 h at room temperature; detected with HRP anti-GST; one-site fit, apparent KD, mean of three experiments
Chain of Human fibrinogen (P02671 36-866, one chain of several): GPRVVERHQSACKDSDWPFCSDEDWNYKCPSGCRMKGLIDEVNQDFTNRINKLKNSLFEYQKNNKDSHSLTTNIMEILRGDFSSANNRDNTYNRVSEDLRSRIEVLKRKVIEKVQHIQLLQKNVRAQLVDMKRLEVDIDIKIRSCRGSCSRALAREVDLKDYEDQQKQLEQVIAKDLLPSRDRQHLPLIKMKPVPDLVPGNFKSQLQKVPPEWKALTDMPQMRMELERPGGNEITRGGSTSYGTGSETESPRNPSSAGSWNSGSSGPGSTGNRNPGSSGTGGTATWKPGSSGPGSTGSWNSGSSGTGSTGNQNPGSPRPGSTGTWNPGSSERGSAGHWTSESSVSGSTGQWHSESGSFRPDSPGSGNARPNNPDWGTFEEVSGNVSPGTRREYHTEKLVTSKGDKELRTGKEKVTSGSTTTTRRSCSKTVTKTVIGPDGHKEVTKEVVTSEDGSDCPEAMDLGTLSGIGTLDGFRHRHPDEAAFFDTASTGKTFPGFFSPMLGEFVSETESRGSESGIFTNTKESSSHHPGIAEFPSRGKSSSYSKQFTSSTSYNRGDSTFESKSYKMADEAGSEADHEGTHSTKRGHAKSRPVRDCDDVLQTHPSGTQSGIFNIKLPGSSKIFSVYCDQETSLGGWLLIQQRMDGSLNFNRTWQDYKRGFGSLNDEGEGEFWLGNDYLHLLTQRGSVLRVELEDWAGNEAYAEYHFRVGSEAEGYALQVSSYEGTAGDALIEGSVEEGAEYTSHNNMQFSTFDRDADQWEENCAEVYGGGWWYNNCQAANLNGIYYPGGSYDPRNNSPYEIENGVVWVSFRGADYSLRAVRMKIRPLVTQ

[1] = target: T1, GST-Coa (full-length Coagulase) (S. aureus strain Newman); experiment: ELISA; GST-vWbp or GST-Coa coated on wells (5 μg/ml, 0.5 μg/well); soluble Fg in 1% BSA, 0.05% Tween 20, TBS; detected with HRP anti-human Fg; one-site fit, apparent KD, mean of three experiments
T1 construct: Coagulase (Coa), S. aureus strain Newman, coa gene amplified from chromosomal DNA; cloning described in Ko et al., 2016; the recombinant protein probably lacks it; also called intact Coa; source: E. coli BL21 (DE3)-derivative Acella, purified (glutathione-Sepharose 4B, gel permeation); not shown: GST, N-terminal, kept

[2] = target: T2, GST-vWbp (full-length von Willebrand factor binding protein) (S. aureus strain Newman); experiment: as above
T2 construct: Cloned in pGEX-5x-1; also called full-length vWbp; source: E. coli BL21 (DE3)-derivative Acella, purified (glutathione-Sepharose 4B, gel permeation); not shown: GST, N-terminal, kept

[3] = target: T1, GST-Coa (full-length Coagulase); experiment: ELISA; Fg coated on wells (5 μg/ml, 0.5 μg/well); GST-vWbp or GST-Coa proteins in 1% BSA, 0.05% Tween 20, TBS, 1 h at room temperature; detected with HRP anti-GST; one-site fit, apparent KD, mean of three experiments
[4] = target: T2, GST-vWbp (full-length von Willebrand …); experiment: as above

| Binder | Kd (Human fibrinogen) | Kd [1] | Kd [2] | Kd [3] | Kd [4] |
| --- | --- | --- | --- | --- | --- |
| B1 | 20 nM | – | – | – | – |
| B2 | – | 0.09 nM | 5.3 nM | 2.4 nM | 9.9 nM |
| B3 | 0.46 nM | – | – | – | – |
